These results are taken from the supplement of paper PMC12764529.

A short description of data set [1]: folding stability dG unfold from trypsin proteolysis; higher = more stable. In a few lines:
(§1)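 Designed mini-proteins (under 80 residues, no cysteine) in a PA-tagged cDNA display construct were digested with trypsin and chymotrypsin. Each protease was used at 11 concentrations (threefold dilutions) plus a no-protease condition, followed by sequencing. K50 was inferred by Bayesian fitting of sequencing counts, and unfolding free energy was derived against a sequence-predicted unfolded-state K50 and a shared folded-state K50, per protease or combined. Only designs with AlphaFold2 dimer inter-PAE above 15 were kept.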

Data set [2] is described as follows: folding stability dG unfold from chymotrypsin proteolysis; higher = more stable. In a few lines: as §1
The nature of data set [3]: folding stability dG unfold (combined trypsin and chymotrypsin); higher = more stable. Summed up:
as §1

± gives the half width of the 95% confidence interval.

Consider “SAGGSAGGSSLLVLRELADGGVALHLIDVEPDEPVGVETVLDEFRELHPDTPPLPVLILRPDPSAGGSAGGS [r12_262_TrMRF]”, for which the “folding stability dG unfold” value is 0.251 ± 0.031 kcal/mol in data set [1], -0.127 ± 0.14 kcal/mol in data set [2] and 0.115 ± 0.073 kcal/mol in data set [3].

Take “SAGGSAGGSSMKVEVTVEPVDPARGLYRVTITLYDPNSDTPLKTVPVLAESPEEIEAAILELLSAGGSAGGS [r12_26_JUSTAS]”: the entries for the “folding stability dG unfold” value in data set [1], in data set [2] and in data set [3] were 2.55 ± 0.11 kcal/mol, 2.91 ± 0.05 kcal/mol and 2.67 ± 0.12 kcal/mol, respectively.

As to “SAGGSAGGSSMLTITKTYTLPPEEIKKIEGKPGVLKVEPFVTPEGKLVVKVEIRLEIGPEKLLLSAGGSAGG [r6_155_JUSTAS]”, the results for the “folding stability dG unfold” value in data set [1], in data set [2] and in data set [3] were 0.738 ± 0.11 kcal/mol, 1.11 ± 0.22 kcal/mol and 0.914 ± 0.11 kcal/mol, respectively.

Take “SAGGSAGGSSMPFLNPDGHPAVLVEVDGSTGSLSVELRGPDGRPVLQVSVSVSGPATVTVRVGSAGGSAGGS [r12_960_JUSTAS]”: the “folding stability dG unfold” value in data set [1] is 2.75 ± 0.11 kcal/mol; in data set [2], 2.56 ± 0.086 kcal/mol; in data set [3], 2.61 ± 0.079 kcal/mol.

In the case of “SAGGSAGGSSMSSTVEKEPDDVLIISTKVFFDTDTYSTLTTIVEVKPPLDPSNPELLARALGLLSAGGSAGG [r6_293_JUSTAS]”, the results for the “folding stability dG unfold” value in data set [1], in data set [2] and in data set [3] were 1.1 ± 0.026 kcal/mol, 1.49 ± 0.039 kcal/mol and 1.3 ± 0.063 kcal/mol, respectively.

For “SAGGSAGGSSPDWSVKKSTVTVTITFPEEKYFEPETKKEVAKRPVITIEIEIEVVETLPASLISAGGSAGGS [r12_600_JUSTAS]”, the results for the “folding stability dG unfold” value in data set [1], in data set [2] and in data set [3] were 1.65 ± 0.067 kcal/mol, 1.44 ± 0.096 kcal/mol and 1.63 ± 0.19 kcal/mol, respectively.

“SAGGSAGGSSPPLEILDPVSATLPDGGTLTVAKAAGSYYLVTTTTYDPATGTATSTTTVVPLESAGGSAGGS [r20_15_JUSTAS]”: the entries for the “folding stability dG unfold” value in data set [1], in data set [2] and in data set [3] were 0.0164 ± 0.088 kcal/mol, 0.827 ± 0.076 kcal/mol and 0.528 ± 0.065 kcal/mol, respectively.

For “SAGGSAGGSSPSTSSERRIELPGGEEAEVFFYPSSGKILVRFPDREVEYYVEDDGKIVKKDPLSAGGSAGGS [r12_47_JUSTAS]”, the results for the “folding stability dG unfold” value in data set [1], in data set [2] and in data set [3] were 0.478 ± 0.063 kcal/mol, 0.0525 ± 0.21 kcal/mol and 0.315 ± 0.13 kcal/mol, respectively.

With “SAGGSAGGSSSATLAADETATLRFRVTLTFGSGVRSGTADLSGSVSATVEVDVEIEVRNLADDSAGGSAGGS [r12_668_TrMRF]”, the “folding stability dG unfold” value in data set [1] worked out at 3.32 ± 0.056 kcal/mol; in data set [2], 4.62 ± 0.082 kcal/mol; in data set [3], 4.24 ± 0.07 kcal/mol.

On to “SAGGSAGGSSSMVVIEKEFPDLTPEEVEKLAKEIEEKNPELGKVEVKFKPKKKPKPPLTPEAKKSAGGSAGG [r6_825_JUSTAS]”, for which the entries for the “folding stability dG unfold” value in data set [1], in data set [2] and in data set [3] were -0.672 ± 0.21 kcal/mol, 1.29 ± 0.036 kcal/mol and 0.878 ± 0.11 kcal/mol, respectively.

“SAGGSAGGSSVSVSFPSSVTKVEPELNDPNLTTFFESPGLVIKVTVVPGTGKVIIEKKPLSELSAGGSAGGS [r12_858_JUSTAS]”: the figures for the “folding stability dG unfold” value in data set [1], in data set [2] and in data set [3] were 0.858 ± 0.023 kcal/mol, -0.663 ± 0.13 kcal/mol and 0.342 ± 0.053 kcal/mol, respectively.

For “SAGGSAGGSSVTRLIYLEDGTVLVVKLTPKPLVLPDGKPAFVLGFEVVEIRPVKDPKEALKALSAGGSAGGS [r12_915_TrMRF]”, the figures for the “folding stability dG unfold” value in data set [1], in data set [2] and in data set [3] were 1.81 ± 0.039 kcal/mol, 1.3 ± 0.081 kcal/mol and 1.61 ± 0.071 kcal/mol, respectively.

As for “SAGGSAGGSSYTTSTATDPNADVTTTTTTYPDSIVTPVWDPRTGKVVETVTTTPDGTTTTVAASAGGSAGGS [r12_563_JUSTAS]”, the “folding stability dG unfold” value in data set [1] was 0.543 ± 0.068 kcal/mol; in data set [2], 0.0262 ± 0.17 kcal/mol; in data set [3] it was 0.289 ± 0.14 kcal/mol.

Turning to “SAGGSAGGSTALVYKNGVTVTFPVFFPDTAPAVVTLSIPSPEEAAAAVAALRAAGHAVTVEPLASAGGSAGG [r6_872_JUSTAS]”, the “folding stability dG unfold” value amounted to 0.96 ± 0.012 kcal/mol in data set [1], 1.48 ± 0.048 kcal/mol in data set [2] and 1.29 ± 0.031 kcal/mol in data set [3].

Consider “SAGGSAGGSTIMFKVDSPDELIDKIKIPPGFRVEIMQTPDRYYVMIRPPPSPEQMAKREKNNGSAGGSAGGS [r12_274_TrROS]”, for which the “folding stability dG unfold” value in data set [1] came to 3.35 ± 0.42 kcal/mol; in data set [2] it was 3.16 ± 0.23 kcal/mol; in data set [3] it was 3.26 ± 0.41 kcal/mol.

Turning to “SAGGSAGGSTIRIRVKTREEAERLAKLIPGARITYDEETKEFYLEIRLPPAPPPSLEELKAALSAGGSAGGS [r20_191_TrROS_Hall]”, the “folding stability dG unfold” value in data set [1] came out at 3.62 ± 0.062 kcal/mol; in data set [2] it was 1.96 ± 0.038 kcal/mol; in data set [3], 2.84 ± 0.058 kcal/mol.

Consider “SAGGSAGGSTITITTVIEKDGELYVIEAKIEVTEVYYDKKTKKKVKVKVKIEIKIEKVPLEDLSAGGSAGGS [r12_809_TrROS_Hall]”, for which the “folding stability dG unfold” value turned out to be 2.96 ± 0.56 kcal/mol in data set [1], 3.28 ± 0.23 kcal/mol in data set [2] and 3.07 ± 0.45 kcal/mol in data set [3].

For “SAGGSAGGSTPELLKKLPPGAKVEVETRLVTNEDGSVYKVVKIKIVDKKTNKTLELELVVKLPSAGGSAGGS [r12_892_TrROS_Hall]”, the “folding stability dG unfold” value came out at 2.13 ± 0.041 kcal/mol in data set [1], 1.65 ± 0.052 kcal/mol in data set [2] and 1.96 ± 0.07 kcal/mol in data set [3].

As to “SAGGSAGGSTPMSVEEIVERIKEEKRKENPNETVEIEFTAELKGGPEGAPEGIYPVKIKVPPGKSAGGSAGG [r6_79_JUSTAS]”, the entries for the “folding stability dG unfold” value in data set [1], in data set [2] and in data set [3] were 0.05 ± 0.051 kcal/mol, 0.489 ± 0.071 kcal/mol and 0.208 ± 0.12 kcal/mol, respectively.

“SAGGSAGGSTVEEIADFFKQQGFTDAEINVMPPPNGRRYVTVRFEMKEPNGNKHKMNFSIWIPSAGGSAGGS [r12_246_TrROS]”: the figures for the “folding stability dG unfold” value in data set [1], in data set [2] and in data set [3] were 2.53 ± 0.16 kcal/mol, 1.99 ± 0.16 kcal/mol and 2.31 ± 0.34 kcal/mol, respectively.

As to “SAGGSAGGSVLVIDSPEQIKKAIKEFKDNGAKSIHIRGPGRYWVIQIDPKEPKVKVERVPLGQSAGGSAGGS [r12_368_TrROS]”, the “folding stability dG unfold” value in data set [1] stood at 0.639 ± 0.096 kcal/mol; in data set [2], 0.674 ± 0.17 kcal/mol; in data set [3] it was 0.643 ± 0.16 kcal/mol.

Regarding “SAGGSAGGSVPLELELTFKLENGSFIVVKAKIEFNPETPEFKVEVLSVEIFLEPEGKIVSDEDFSAGGSAGG [r6_864_TrMRF]”, the “folding stability dG unfold” value in data set [1] amounted to 1.43 ± 0.087 kcal/mol; in data set [2], 3.08 ± 0.085 kcal/mol; in data set [3] it was 2.44 ± 0.29 kcal/mol.

“SAGGSAGGSWDRIKDALRKYGFPPENVKIEFETYPNGNMNVMIRHNGEQIPRNRINKAIQELMSAGGSAGGS [r12_175_TrROS]”: the “folding stability dG unfold” value in data set [1] came to 1.27 ± 0.035 kcal/mol; in data set [2], 1.46 ± 0.096 kcal/mol; in data set [3], 1.54 ± 0.22 kcal/mol.

In the case of “SAGGSAGGSWFIRVEYKRPNGQPKTLQIPVPRDQLKKMSIDEIKDRAENLGLPPNVKIEWYPFSAGGSAGGS [r12_742_TrROS]”, the results for the “folding stability dG unfold” value in data set [1], in data set [2] and in data set [3] were 1.04 ± 0.032 kcal/mol, 1.78 ± 0.061 kcal/mol and 1.55 ± 0.056 kcal/mol, respectively.

On to “SAGGSAGGSWIILIHWPNGKEIPIFFKSPEEANEIAEEIKKIFQEKGMEPVSVEIYPIKPGQMSAGGSAGGS [r12_301_TrROS]”, for which the figures for the “folding stability dG unfold” value in data set [1], in data set [2] and in data set [3] were 2.47 ± 0.086 kcal/mol, 2.26 ± 0.071 kcal/mol and 2.32 ± 0.21 kcal/mol, respectively.

Consider “SAGGSAGGSWKIVEIEVQRFPDGMYMVEIRFPDHGMPVTVHIDPPKNKITIYFPNGRSIEIPFSAGGSAGGS [r12_88_TrROS]”, for which the results for the “folding stability dG unfold” value in data set [1], in data set [2] and in data set [3] were 3.26 ± 0.11 kcal/mol, 4.22 ± 0.089 kcal/mol and 3.99 ± 0.12 kcal/mol, respectively.
